The text below walks through data of article PMC9410875, “FOXL2 and FOXA1 cooperatively assemble on the TP53 promoter in alternative dimer configurations”.

One may read the Kd as the concentration at which binding is half-saturated.

One series has as its target T1, FOXL2 full-length (UniProt P58012 1-376).
T1 sequence: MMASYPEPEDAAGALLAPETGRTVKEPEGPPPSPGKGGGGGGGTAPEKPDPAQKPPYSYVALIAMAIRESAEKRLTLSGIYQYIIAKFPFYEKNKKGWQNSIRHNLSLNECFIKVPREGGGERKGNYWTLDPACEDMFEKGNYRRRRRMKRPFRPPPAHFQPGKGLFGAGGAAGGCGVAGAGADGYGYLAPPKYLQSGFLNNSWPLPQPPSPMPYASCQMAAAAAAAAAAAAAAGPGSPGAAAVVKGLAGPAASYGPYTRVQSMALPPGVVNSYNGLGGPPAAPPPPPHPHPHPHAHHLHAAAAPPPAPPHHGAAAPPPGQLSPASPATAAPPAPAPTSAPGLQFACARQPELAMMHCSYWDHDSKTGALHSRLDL
In words: EMSA; 1 or 10 ug protein; ITC: 20 mM HEPES pH 7.5, 150 mM NaCl, 10 mM MgCl2, 298 K. EMSA: 2.5 uM DNA, 20 mM HEPES pH 7.5, 50 mM KCl, 10 mM MgCl2, 1 mM DTT, 10% glycerol, on ice 30 min; FOXA1 EMSA: 20 mM Tris-HCl pH 8.0, 0.1 mg/ml BSA, 50 uM ZnCl2, 100 mM KCl, 2 mM beta-mercaptoethanol, 10% glycerol (50 mM EDTA for Mg2+ depletion). To be noted: protein: recombinant; label: 32P. A general note: In EMSA bound probe runs differently from free probe, usually more slowly.

Series [1] deals with T2, FOXL2-DBD (Homo sapiens, UniProt P58012 52-148).
T2 sequence: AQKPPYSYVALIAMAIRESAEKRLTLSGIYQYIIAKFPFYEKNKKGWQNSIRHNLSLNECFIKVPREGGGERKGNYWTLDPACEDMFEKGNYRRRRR
As to the kind of experiment: ITC; 1:1 stoichiometry; 10 mM MgCl2, 298 K; ITC: 20 mM HEPES pH 7.5, 150 mM NaCl, 10 mM MgCl2, 298 K. EMSA: 2.5 uM DNA, 20 mM HEPES pH 7.5, 50 mM KCl, 10 mM MgCl2, 1 mM DTT, 10% glycerol, on ice 30 min; FOXA1 EMSA: 20 mM Tris-HCl pH 8.0, 0.1 mg/ml BSA, 50 uM ZnCl2, 100 mM KCl, 2 mM beta-mercaptoethanol, 10% glycerol (50 mM EDTA for Mg2+ depletion). To be noted: protein: recombinant; tags: GST tag cleaved by TEV; blunt.

The target in series [2] is T2, FOXL2-DBD. As to the kind of experiment: ITC; 1:1 one-site curve; biphasic pattern lost; ITC: 20 mM HEPES pH 7.5, 150 mM NaCl, 10 mM MgCl2, 298 K. EMSA: 2.5 uM DNA, 20 mM HEPES pH 7.5, 50 mM KCl, 10 mM MgCl2, 1 mM DTT, 10% glycerol, on ice 30 min; FOXA1 EMSA: 20 mM Tris-HCl pH 8.0, 0.1 mg/ml BSA, 50 uM ZnCl2, 100 mM KCl, 2 mM beta-mercaptoethanol, 10% glycerol (50 mM EDTA for Mg2+ depletion). To be noted: protein: recombinant; tags: GST tag cleaved by TEV; blunt. In general terms: In ITC the heat of successive injections is recorded.

Another series has as its target T3, FOXA1-DBD S177A (UniProt P55317 168-264, S177A).
T3 sequence: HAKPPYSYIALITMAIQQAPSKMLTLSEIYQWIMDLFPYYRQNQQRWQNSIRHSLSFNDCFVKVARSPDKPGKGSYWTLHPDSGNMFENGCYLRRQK
In words: EMSA; little change vs wild type; ITC: 20 mM HEPES pH 7.5, 150 mM NaCl, 10 mM MgCl2, 298 K. EMSA: 2.5 uM DNA, 20 mM HEPES pH 7.5, 50 mM KCl, 10 mM MgCl2, 1 mM DTT, 10% glycerol, on ice 30 min; FOXA1 EMSA: 20 mM Tris-HCl pH 8.0, 0.1 mg/ml BSA, 50 uM ZnCl2, 100 mM KCl, 2 mM beta-mercaptoethanol, 10% glycerol (50 mM EDTA for Mg2+ depletion). To be noted: protein: recombinant; label: 5' Cy3 on strand 1 (legends say Cy5); blunt.

Series [3] deals with T2, FOXL2-DBD. In words: ITC; 2:1 stoichiometry, biphasic; Kd values not in the text; ITC: 20 mM HEPES pH 7.5, 150 mM NaCl, 10 mM MgCl2, 298 K. EMSA: 2.5 uM DNA, 20 mM HEPES pH 7.5, 50 mM KCl, 10 mM MgCl2, 1 mM DTT, 10% glycerol, on ice 30 min; FOXA1 EMSA: 20 mM Tris-HCl pH 8.0, 0.1 mg/ml BSA, 50 uM ZnCl2, 100 mM KCl, 2 mM beta-mercaptoethanol, 10% glycerol (50 mM EDTA for Mg2+ depletion). To be noted: protein: recombinant; tags: GST tag cleaved by TEV; blunt.

The target of the next series is T4, FOXA1-DBD (UniProt P55317 168-264).
T4 sequence: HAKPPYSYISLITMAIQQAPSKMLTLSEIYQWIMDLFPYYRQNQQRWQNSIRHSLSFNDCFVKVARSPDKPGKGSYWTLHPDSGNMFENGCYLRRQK
As to the kind of experiment: X-ray crystallography; 2:1, 2.1 A; Mg2+ at dimer interface; ITC: 20 mM HEPES pH 7.5, 150 mM NaCl, 10 mM MgCl2, 298 K. EMSA: 2.5 uM DNA, 20 mM HEPES pH 7.5, 50 mM KCl, 10 mM MgCl2, 1 mM DTT, 10% glycerol, on ice 30 min; FOXA1 EMSA: 20 mM Tris-HCl pH 8.0, 0.1 mg/ml BSA, 50 uM ZnCl2, 100 mM KCl, 2 mM beta-mercaptoethanol, 10% glycerol (50 mM EDTA for Mg2+ depletion). To be noted: protein: recombinant; tags: GST tag cleaved by TEV; chain copies: 2; blunt.

B1: TP53-DNA, 32P probe (dsDNA)
DNA 1: CCCTCATTCAAAAAATATTTATTATCGAGCTCTTACT
DNA 2: AGTAAGAGCTCGATAATAAATATTTTTTGAATGAGGG
For the molecule B1, the binding result with FOXL2 full-length was “binds”.

B2: DBE2 DNA 16 bp (dsDNA)
DNA 1: CAAAATGTAAACAAGT
DNA 2: ACTTGTTTACATTTTG
Take B2: in the series with FOXL2-DBD [1], the Kd is 0.79 ± 0.1 µM.

B3: p53 mut2 16 bp (ITC) (dsDNA)
DNA 1: AAATATTTATCCCTCA
DNA 2: TGAGGGATAAATATTT
B3: the binding result with FOXL2-DBD [2] is listed as “binds”.

B4: p53-DNA 26 bp (S0) (dsDNA)
DNA 1: TCAAAAAATATTTATTATCGAGCTCT
DNA 2: AGAGCTCGATAATAAATATTTTTTGA
Take B4: the binding result with FOXA1-DBD S177A is on record as “binds”.

B5: p53-DNA 16 bp (dsDNA)
DNA 1: AAATATTTATTATCGA
DNA 2: TCGATAATAAATATTT
Turning to B5, the binding result in the series with FOXL2-DBD [3] and with FOXA1-DBD was “binds” each time.
